Experimental findings from patent US20210395344A1 (TWIST BIOSCIENCE, published 2021) are described below.

Where two headings read alike, the source gives them in different places.

Experiment in all cases: phage ELISA
Experiment [1] concerns the target T1, Acro COVID S1 (S1N-C82E8) (SARS-CoV-2, UniProt P0DTC2 16-685).
T1 construct: domain: S1

For experiment [2], the target named is T1, Acro COVID S1 (S1N-C82E8). This is another data set of the same source.
In experiment [3] the target is T2, Acro COVID S1 (S1N-C82E8) (SARS-CoV-2, UniProt P0DTC2 16-685).
T2 construct: domain: S1 (subunit 1)

B1: 1-23 (antibody, V domains shown)
VH: EVQLLESGGGLVQPGGSLRLSCAASGFTFSSYAISWVRQAPGKGLEWVSIISGSGGSTYYADSVKGRFTISRDNSKNTLYLQMNSLRAEDTAVYYCAREGYRDYLWYFDLWGQGTLVTVSS
VL: QSALTQPASVSGSPGQSITISCTGTSNDVGSYNLVSWYQQHPGKAPKLMIYEGNKRPSGVSNRFSGSKSGNTASLTISGLQAEDEADYYCCSYAGSYTVFGGGTKLTVL
notes: also called variant 1-23
Take B1: the “ELISA fold over background” value in experiment [1] and in experiment [2] was 5.1 fold over background each time.

B2: 1-24 (antibody, V domains shown)
VH: EVQLLESGGGLVQPGGSLRLSCAASGFTFSSYAMNWVRQAPGKGLEWVSIISGSGGSTYYADSVKGRFTISRDNSKNTLYLQMNSLRAEDTAVYYCAREGYRDYLWYFDLWGQGTLVTVSS
VL: QSALTQPASVSGSPGQSITISCTGTSSDVGYYNLVSWYQQHPGKAPKLMIYEGNKRPSGVSNRFSGSKSGNTASLTISGLQAEDEADYYCCSYAGGSVVFGGGTKLTVL
notes: also called variant 1-24
Consider B2, for which the “ELISA fold over background” value in experiment [1] and in experiment [2] was 12.9 fold over background throughout.

B3: 1-29 (antibody, V domains shown)
VH: EVQLLESGGGLVQPGGSLRLSCAASGFTFSSYAMYWVRQAPGKGLEWVSAISGSAGSTYYADSVKGRFTISRDNSKNTLYLQMNSLRAEDTAVYYCARDTNDFWSGYSIFDPWGQGTLVTVSS
VL: QSALTQPASVSGSPGQSITISCTGTSSDIGSYNLVSWYQQHPGKAPKLMIYEGTKRPSGVSNRFSGSKSGNTASLTISGLQAEDEADYYCCSYAGSRTYVFGGGTKLTVL
notes: also called variant 1-29
As to B3, the “ELISA fold over background” value in experiment [1] and in experiment [2] was 1.1 fold over background in each case.

B4: SARS-CoV-2 variant 1-17 (antibody, V domains shown)
VH: EVQLLESGGGLVQPGGSLRLSCAASGFTFSSYAMYWVRQAPGKGLEWVSAISGSAGSTYYADSVKGRFTISRDNSKNTLYLQMNSLRAEDTAVYYCARDTNDFWSGYSIFDPWGQGTLVTVSS
VL: QSALTQPASVSGSPGQSITISCTGTSSDIGSYNLVSWYQQHPGKAPKLMIYEGTKRPSGVSNRFSGSKSGNTASLTISGLQAEDEADYYCCSYAGSRTYVFGGGTKLTVL
For B4, the “specificity ELISA, fold over background” value in experiment [3] is 25.1 fold over background.

B5: SARS-CoV-2 variant 1-29 (antibody, V domains shown)
VH: EVQLLESGGGLVQPGGSLRLSCAASGFTFSSYAMYWVRQAPGKGLEWVSAISGSAGSTYYADSVKGRFTISRDNSKNTLYLQMNSLRAEDTAVYYCARDTNDFWSGYSIFDPWGQGTLVTVSS
VL: QSALTQPASVSGSPGQSITISCTGTSSDIGSYNLVSWYQQHPGKAPKLMIYEGTKRPSGVSNRFSGSKSGNTASLTISGLQAEDEADYYCCSYAGSRTYVFGGGTKLTVL
On to B5, for which the “specificity ELISA, fold over background” value in experiment [3] is 1.1 fold over background.

B6: SARS-CoV-2 variant 1-37 (antibody, V domains shown)
VH: EVQLLESGGGLVQPGGSLRLSCAASGFTFTSYAMNWVRQAPGKGLEWVTAISGSGGSTFYADSVKGRFTISRDNSKNTLYLQMNSLRAEDTAVYYCTRPPYGDYGDYWGQGTLVTVSS
VL: QSALTQPASVSGSPGQSITISCTGTSSDIGSYNLVSWYQQHPGKAPKLMIYEGTKRPSGVSNRFSGSKSGNTASLTISGLQAEDEADYYCCSYAGSRTYVFGGGTKLTVL
For the molecule B6, the “specificity ELISA, fold over background” value in experiment [3] was found to be 11.6 fold over background.

B7: 1-2 (antibody, V domains shown)
VH: EVQLLESGGGLVQPGGSLRLSCAASGFTFSSQAMSWVRQAPGKGLEWVSAISGSGGGTYYADSVKGRFTISRDNSKNTLYLQMNSLRAEDTAVYYCAKDRRFGEFDPWGQGTLVTVSS
VL: QSALTQPASVSGSPGQSITISCTGTSSGVGSYNLVSWYQQHPGKAPKLMIYEGIKRPSGVSNRFSGSKSGNTASLTISGLQAEDEADYYCCSYAGSSSFVVFGGGTKLTVL
notes: also called variant 1-2
For B7, the “ELISA fold over background” value in experiment [1] and in experiment [2] was 1.8 fold over background throughout.

B8: 1-10 (antibody, V domains shown)
VH: EVQLLESGGGLVQPGGSLRLSCAASGFTFSSYDMSWVRQAPGKGLEWVSVISGSGGSTYYADSVKGRFTISRDNSKNTLYLQMNSLRAEDTAVYYCAKGPLVGWYFDLWGQGTLVTVSS
VL: QSALTQPASVSGSPGQSITISCTGTSSNVGSYNLVSWYQQHPGKAPKLMIYEGTKRPSGVSNRFSGSKSGNTASLTISGLQAEDEADYYCCSYAGSSSFVVFGGGTKLTVL
notes: also called variant 1-10
For B8, the “ELISA fold over background” value in experiment [1] and in experiment [2] was 17.4 fold over background in each case.

B9: 1-47 (antibody, V domains shown)
VH: EVQLLESGGGLVQPGGSLRLSCAASGFTFSSQAMSWVRQAPGKGLEWVSAISGSGGGTYYADSVKGRFTISRDNSKNTLYLQMNSLRAEDTAVYYCAKDRRFGEFDPWGQGTLVTVSS
VL: QSALTQPASVSGSPGQSITISCTGTSSGVGSYNLVSWYQQHPGKAPKLMIYEGIKRPSGVSNRFSGSKSGNTASLTISGLQAEDEADYYCCSYAGSSSFVVFGGGTKLTVL
notes: also called variant 1-47
On to B9, for which the “ELISA fold over background” value in experiment [1] and in experiment [2] was 8.1 fold over background throughout.

B10: 1-31 (antibody, V domains shown)
VH: EVQLLESGGGLVQPGGSLRLSCAASGFTFSSYAMNWVRQAPGKGLEWVSAISGSGGSTFYADSVKGRFTISRDNSKNTLYLQMNSLRAEDTAVYYCTRPPYGDYGDYWGQGTLVTVSS
VL: QSALTQPASVSGSPGQSITISCTGTSSDVGKYNLVSWYQQHPGKAPKLMIYEGSQRPSGVSNRFSGSKSGNTASLTISGLQAEDEADYYCCSYAGSRTPVVFGGGTKLTVL
notes: also called variant 1-31
With B10, the “ELISA fold over background” value in experiment [1] and in experiment [2] was 30.4 fold over background each time.

B11: SARS-CoV-2 variant 1-26 (antibody, V domains shown)
VH: EVQLLESGGGLVQPGGSLRLSCAASGFTFSSYAISWVRQAPGKGLEWVSAISGSGYSTYYADSVKGRFTISRDNSKNTLYLQMNSLRAEDTAVYYCARGAPDSSGYYFQGEVYFDYWGQGTLVTVSS
VL: QSALTQPASVSGSPGQSITISCTGTSSDVGGYNLVSWYQQHPGKAPKLMIYEGTKRPSGVSNRFSGSKSGNTASLTISGLQAEDEADYYCCSFVRSSAHVVFGGGTKLTVL
On to B11, for which the “specificity ELISA, fold over background” value in experiment [3] came out at 1.4 fold over background.

B12: 1-27 (antibody, V domains shown)
VH: EVQLLESGGGLVQPGGSLRLSCAASGFTFSSYAMTWVRQAPGKGLEWVSAISGSGGGTYYADSVKGRFTISRDNSKNTLYLQMNSLRAEDTAVYYCASSSSWQFDYWGQGTLVTVSS
VL: QSALTQPASVSGSPGQSITISCTGTSSYVGHYNLVSWYQQHPGKAPKLMIYEGSRRPSGVSNRFSGSKSGNTASLTISGLQAEDEADYYCCSYAGSYTHYVFGGGTKLTVL
notes: also called variant 1-27
As for B12, the “ELISA fold over background” value in experiment [1] and in experiment [2] was 1.5 fold over background in each case.

B13: SARS-CoV-2 variant 1-47 (antibody, V domains shown)
VH: EVQLLESGGGLVQPGGSLRLSCAASGFTFSSQAMSWVRQAPGKGLEWVSAISGSGGGTYYADSVKGRFTISRDNSKNTLYLQMNSLRAEDTAVYYCAKDRRFGEFDPWGQGTLVTVSS
VL: QSALTQPASVSGSPGQSITISCTGTSSGVGSYNLVSWYQQHPGKAPKLMIYEGIKRPSGVSNRFSGSKSGNTASLTISGLQAEDEADYYCCSYAGSSSFVVFGGGTKLTVL
With B13, the “specificity ELISA, fold over background” value in experiment [3] came out at 8.1 fold over background.

B14: 1-30 (antibody, V domains shown)
VH: EVQLLESGGGLVQPGGSLRLSCAASGFTFSSYAMTWVRQAPGKGLEWVSAISGSGGSTFYADSVKGRFTISRDNSKNTLYLQMNSLRAEDTAVYYCTRPPYGDYGDYWGQGTLVTVSS
VL: QSALTQPASVSGSPGQSITISCTGTSRDVGSYNLVSWYQQHPGKAPKLMIYEGTKRPSGVSNRFSGSKSGNTASLTISGLQAEDEADYYCCSYAGSRTPVVFGGGTKLTVL
notes: also called variant 1-30
As for B14, the “ELISA fold over background” value in experiment [1] and in experiment [2] was 16.8 fold over background in each case.

B15: 1-5 (antibody, V domains shown)
VH: EVQLLESGGGLVQPGGSLRLSCAASGFTFSSQAMSWVRQAPGKGLEWVSAISGSGGGTYYADSVKGRFTISRDNSKNTLYLQMNSLRAEDTAVYYCAKDRRFGEFDPWGQGTLVTVSS
VL: QSALTQPASVSGSPGQSITISCTGTSSGVGSYNLVSWYQQHPGKAPKLMIYEASKRPSGVSNRFSGSKSGNTASLTISGLQAEDEADYYCCSYAGSYTFAVFGGGTKLTVL
notes: also called variant 1-5
Regarding B15, the “ELISA fold over background” value in experiment [1] and in experiment [2] was 1.5 fold over background throughout.

B16: 1-4 (antibody, V domains shown)
VH: EVQLLESGGGLVQPGGSLRLSCAASGFTFSSQAMSWVRQAPGKGLEWVSAISGSGGGTYYADSVKGRFTISRDNSKNTLYLQMNSLRAEDTAVYYCAKDRRFGEFDPWGQGTLVTVSS
VL: QSALTQPASVSGSPGQSITISCTGTSSDVGTYNLVSWYQQHPGKAPKLMIYEGSQRPSGVSNRFSGSKSGNTASLTISGLQAEDEADYYCCSYAGSSSFVVFGGGTKLTVL
notes: also called variant 1-4
Take B16: the “ELISA fold over background” value in experiment [1] and in experiment [2] was 1 fold over background in each case.

B17: 1-3 (antibody, V domains shown)
VH: EVQLLESGGGLVQPGGSLRLSCAASGFTFSSQAMSWVRQAPGKGLEWVSAISGSGGGTYYADSVKGRFTISRDNSKNTLYLQMNSLRAEDTAVYYCAKDRRFGEFDPWGQGTLVTVSS
VL: QSALTQPASVSGSPGQSITISCTGISSDVGSYNLVSWYQQHPGKAPKLMIYEGTKRPSGVSNRFSGSKSGNTASLTISGLQAEDEADYYCCSYAGSSSFVVFGGGTKLTVL
notes: also called variant 1-3
Consider B17, for which the “ELISA fold over background” value in experiment [1] and in experiment [2] was 1.6 fold over background in each case.

B18: 1-7 (antibody, V domains shown)
VH: EVQLLESGGGLVQPGGSLRLSCAASGFTFSSYDMSWVRQAPGKGLEWVSVISGSGGSTYYADSVKGRFTISRDNSKNTLYLQMNSLRAEDTAVYYCAKGPLVGWYFDLWGQGTLVTVSS
VL: QSALTQPASVSGSPGQSITISCTGTSSDFGSYNLVSWYQQHPGKAPKLMIYEGNKRPSGVSNRFSGSKSGNTASLTISGLQAEDEADYYCCSYAGSSTFVVFGGGTKLTVL
notes: also called variant 1-7
With B18, the “ELISA fold over background” value in experiment [1] and in experiment [2] was 6.8 fold over background each time.

B19: 1-28 (antibody, V domains shown)
VH: EVQLLESGGGLVQPGGSLRLSCAASGFTFSSYGMSWVRQAPGKGLEWVSAISGSGGGTYYADSVKGRFTISRDNSKNTLYLQMNSLRAEDTAVYYCASSSSWQFDYWGQGTLVTVSS
VL: QSALTQPASVSGSPGQSITISCTGTSSGVGSYNLVSWYQQHPGKAPKLMIYEGSQRPSGVSNRFSGSKSGNTASLTISGLQAEDEADYYCCSYAGSSTHYVFGGGTKLTVL
notes: also called variant 1-28
For B19, the “ELISA fold over background” value in experiment [1] and in experiment [2] was 1 fold over background each time.
